From article PMC3950671

What was measured:
[1] = target: T1, PGC7 D9 (human, UniProt Q6W0C5 20-95); experiment: EMSA
T1 sequence: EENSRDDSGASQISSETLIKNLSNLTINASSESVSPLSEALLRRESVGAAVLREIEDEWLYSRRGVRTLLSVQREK

[2] = target: T2, PGC7 (Dppa3/Stella) (human, UniProt Q6W0C5 1-159); experiment: EMSA
T2 sequence: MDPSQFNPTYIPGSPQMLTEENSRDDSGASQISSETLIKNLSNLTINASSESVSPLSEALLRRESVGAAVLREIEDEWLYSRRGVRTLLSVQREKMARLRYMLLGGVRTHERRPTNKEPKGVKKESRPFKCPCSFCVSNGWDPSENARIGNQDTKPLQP

B1: PGC7 motif 50-mer (dsDNA)
DNA 1: GAGTAAGATCATGCCACTGCACTTCAGCCTGGGCACAGAGTGAGGCTGGG
DNA 2: CCCAGCCTCACTCTGTGCCCAGGCTGAAGTGCAGTGGCATGATCTTACTC
Question: Does B1 bind [1]?
Answer: binds

Question: Does B1 bind [2]?
Answer: binds
